Laboratory results from paper PMC6152768, “Dynamic Allostery Modulates Catalytic Activity by Modifying the Hydrogen Bonding Network in the Catalytic Site of Human Pin1” (Molecules : A Journal of Synthetic Chemistry and Natural …, 2017).
Square brackets hold non-standard residues; d marks the D form. Ends that are not written are not given here. pT = C[C@@H](OP(=O)(O)O)[C@H](N)C(=O)O

Biological target: wild-type human Pin1 PPIase domain (human, UniProt Q13526 1-163)
Assay: ITC; 1.5 uL injections of 10 mM Cdc25C phosphor-peptide into 200 uL of 0.2 mM wild-type or S138A Pin1 PPIase domain in the cell; Microcal Auto iTC200; single-site fit with the stoichiometry fixed to n = 1; in triplicate; buffer and temperature not stated
Details: both partners purified

wild-type human Pin1 PPIase domain, sequence (Q13526 whole entry, the tested form may be a part): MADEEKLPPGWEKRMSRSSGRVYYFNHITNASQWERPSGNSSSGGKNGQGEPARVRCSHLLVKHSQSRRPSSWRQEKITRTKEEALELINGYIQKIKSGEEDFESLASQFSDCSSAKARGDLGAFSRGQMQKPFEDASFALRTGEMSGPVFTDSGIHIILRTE

B1: phosphor-peptide Cdc25C (EQPLpTPVTDL) (peptide)
peptide: EQPL[pT]PVTDL
notes: Phosphopeptide named Cdc25C; also called phosphorylated peptide Cdc25C; Cdc25C phosphor-peptide; source: bought: Funakoshi (Tokyo, Japan), used without further purification
- Kd: 1.81 ± 0.29 mM
- stoichiometry N: 1 ± 0.001
